Source: the DeepSol protein solubility set

Assay: soluble on expression in E. coli; label from the status in PepcDB or PDB records

Sequence | soluble on expression in E. coli
MSLESGFLEDAQANLTLRNFYFNRNFTNPTKAQGKAEEWTQSFILDAKSGFTQGTVGFGMDVLGLYSLKLDGGKGTGGTQLLPLDHDGRPADNFGRLGVAFKARLSQTEVKVGEWMPVLPILRSDDGRSLPQTFRGGQITSKEIAGLTLYGGQFRANSPRDDSSMSDMSMFGKAAFTSDRFNFQGAEYAFNDKRTQIALWNAQLKDIYSQQFINLIHSQPLGDWTLGANLGFFYGKEDGSARAGDMENRTWSGLFSAKYGGNTFYVGLQKLTGDSAWMRVNGTSGGTLANDSYNASYDNAKEKSWQVRHDYNFAALGVPGLTLMNRYISGSNVHTATVSDGKEWGRESEVAYTVQSGTLKNLNLKWRNSTMRRDFSNNEFDENRLIISYPLSLLEGHHHHHH | soluble
MSLETSRNLSNFFDVSADLLSISNMQGRFVKVNRAWETALGYPIEALEGVPFLPLLHPEDQQSTRVQINRIEVDDEVNGFVNRYRRADGSYCQLEWRARRCDDLVFGVARDVTERLRIQAEMAEARDAAEAANRAKNDFLANMSHEIRTPLNGVIALAAALDETPLTSKQAEMVAMIRRSGETLERLVSDILDVSKIEAGQMTLQPQAFDLGALVDGLLDVTRLRAKEKGVAVRLERSPTAAGGFLGDSVRIGQVLSNLFSNAVKFTDQGEVIVRVDVEEAGNGQAARLFVEVEDTGVGFDAEKAEMIFQRFNQADSTITRRFGGSGLGLSISKTLVEMMGGEITAQSSPGAGSLFRVTLPLSRTQMGPDAEIDAPRSAAPGEGLKVLLAEDHPINQRVVQLILEPCGAAVTVVENGAQAVEAMASGAFDVVLMDMQMPVMDGLAATRAIRAREGEGQRTPIIMLSANAMDVHRREALQAGADLHVPKPITIAALLDSIGQVMAREGHHHHHH | soluble
MSLETTVITADRMIDVANGKVVKQAAVIVTDNIITASGRLKDLTVPNEATRIDLGNATLMPGLMDMHVHLTSDATRHGYKRLEVSLPRAAITGVKHAKATLDAGFTTVRNVGAPGFADVALRDAINAGDVVGPRMFVAGPSLGVTGGHCDSNLLPYEYDNYSEGVADGPWEVRKKVRRNIKYGATVIKFCATGGVLSKGTKVGAQQYTFEEMKALIDEAHLRGLTVATHAHGTNGIKAAIKASVDSVEHVSLLDDEAIDLAKKNGTYFSMDIYVTEYILGEGEKAGILEESLNKERIVGKTQRENFEKAVKAGVNMVFGSDAEGHHHHHH | soluble
MSLEVIKHDGPGRLGVIRLEPPVQTPALAGVDFTISPFNSYFNPKEYHDYDFNLAPSIPLSYYTPDEVIEKALKRIETVDYSKFNTFYFPALKRDKYYPRFVELIEENDFDAIYIGNSKVMIKDYRGFVATLRILREKFPNAVLITDLEPFFYPLAVYLGVDAFDVRSLKIYSYEGLGFTPFSPVIWDRPNDPIEFAREMIKIIKIAIQEGKLRYLVENFLPTVMNVGILRIADKEHGDYLEKYTPVHDKTVVFISEHSISRPEVFRWRKRIEERFEPPKGIDLLLIFPCSAKKPYSRSRSHMMYRKVMKEALGEKVHRVHELVVTSPYGVVPREWEWLAKYDIVVTGHWSESEVRFAGELLAQTIEKYPDIPIVAHVEGGYREAVKYAMELVNRDVIFTAVGSSTISKESLDKLKKTLKEFDLRDAEKDYRRYRFYENVRKVFDYYFGLGAGEAVLPENAQIVGSKMLRLIVNNSQTGTFQEGVISVTPFGMQRIYDKLNSYWVEVDFDIRGDVFAAGVERADEGIRPNDIVGIVRDGRVVAVGRAVLSGEEMVRAKKGIAVRVRKRVKNKEGHHHHHH | soluble
MSLEYLLQAAGIPRSTFFYHQKRLSKPDKHAELKDAIRASFERNKHRYGYRRVLLDLRNQGWVVNHKLVYKLMCEMGLRAKIRQRRPYVSYTGTISHIADNKLDRKFTPDQPNTVFVSDVTEFRVAGRKVYLSPVMDLFDRSIVAHTVATSPSTALTTDSLSKAIAACEPEPGWMIHTDQGFQYQHASWRDLIGDNGGVQSMSRKANCYDNAVMENFFGHLKTEMYHGEVFDTVAEFNQVIDEYIQWYNTERIQQRLKGLTPMQYRNQTLEALTAEGHHHHHH | not soluble
MSLFGIEVEEEASQIIHILLLQYISKSYSTYSLRSNQGYNPQTLDNNQQIYNSQLSNGNQQSEITCPYCHSTQVTAGKKGFGVGKAIVGGLLLGPVGLLGGLIGSKNIEFVYNCITLSASNNTNSAQWLREQSNNAKNIVNRYLDNDFAEALVAGSALVAMADGVIEYSERERLINYFKTSQEMKHIDTNMVLSKFDCYTQKLQRDFMMGKQNYEGHHHHHH | not soluble
MSLFITDKRVKESATALNPSMFQGLYLQDQMLKDPTYLPIYGSSELSRLDEFHPSNYFQVNNEGFTPYLVGKGGSQSLIHSLNFAAHMDQLKGKKIVFIVSPQWFIKRGSDEQHFAPNYSALQGLDLAFNDQIDPEIKKKMMKRMLRFKAVQNDAILSELYKAMVNGQTWKVNALKPAAKVYYSMLEKKDLYYSTTESSGPKRYISQSVKDKSWSELNKLADQSGKRHSGSNDFHIDNPVYKKLKPKVPKLKGKNKGRSYAVSPEYGDFEMMLDILKDAGAEPMFVTIPVNGKWYDYTGFPKKGRTDYYKKVNKQIRAKGFQVADFSGHEYDPYFMKDTIHIGWKGWVYVDKAIDEFYKTGKVTSSEGHHHHHH | not soluble
MSLGDSRTKPMEILLVEDGLVDARVTIHALRRSGLHHRLTLVRSVHEAILFMKRTGIFARAPRLDLLLLDMILPDGTGIDVLEEMSELQPDSSRVTTVVLTACEDASYRTRCDELGVYDYIQKPVSEDEFLRVVRDHKKLMIHLQQAAVSAAAGNHSEGHHHHHH | soluble
MSLGEESRDPVAALRLIKHDQQANLYVLCDLHPFLGDSPTLVRLLKEIAMAEGNHRPTVVLVSHALKLPAEVQRFAARFSLSLPSEDELLGIVREEATRWSERNRGARVRTDNRTLQQVVKNLRGLSHAEARLLARNVICNDGAITQEDLPELNRTKFQLLDLEGVLSFEYDTARFAEVGGLAALKRWLGERQSAFLAGKPGDQPKGMMLVGVQGAGKSLAAKAVAGLWGLPLLRLDFACLYNKYFGETERNLREALRLAEQMAPCVLWMDEVEKGISGGDQDNGVSQRVLGTLLTWMAEREAPVFMVATANAIDRLPPELIRKGRFDELFFVDLPTPEVRAEIFRIHLQRRELEPAQFDLHLLAAASEGFSGAEIEQAVVAALYAGQARQQAVDQDLLLRELARTSPLSVLMAEKLAALRTWAKGRAVPADEGHHHHHH | not soluble
MSLGEKASKVLITSVPKCGTHLLKQVVLGAPFYKRGKWISLRESIREQIDNCHDQTIMVGHLEYSEEIVRYLNEKGIRRLFIYRDPRDMLISYVFYVKEIAPKHELRNYFLHVLGSDEERIMKLITGFHYQEENLTYGDLTLHYQPFLPWIEDKGTLALRFEDLVSSNECKEQTISKIADYLWHGSTFDQYNKAVLKKRMLENIRPSHSGTFRKGVSGDWKNYFTAQHKSVFKEVAGQLLIDLGYEKDMDEGHHHHHH | soluble
MSLGEPMKQEKQQFIKTDWTIDMINRRQFEKYAIDILTATKDIHRGGWVERIDNKAWQYVRVYENGDIEVLITLQIIRFHKYFDTPVWLQFNPNHLLPADYVQLDHVMKYVDHSHLTRADLANDIYNINLQRYDFGLFGVTRDIYRSLSGDLETRYWGRRKSERQIRLYDKMREMKKHGKADDIPDGITDWWRLEFQFRGGKVESWQEEVMDKMQSFHVLAVDDNDDLSEIDKAILARVNADKFDFKRVGKRYAAKIRKMVRENVGFDTTVAELSLKTFNEQKDELQRQLDSMLAKYNIGAQTEEMTAYFEEELKQTGNLDFSVVESESALERNVIRNIAKTWREENSLTHRTNTEGHHHHHH | not soluble
MSLGFSRQAFYKRHLNDLARHEEDVLCSSIIQYCWHLRQAEHLPQAGFRELMVLCQQYFGPKFTLGRDRFCALLRRHGMMLRKRSVRPRTTNSRHRLYKYEDLLNTEPKFVPQRPGELLVADITYVAYQDGFAYLSLLTDAYSRCIVGYCLHPTLEVEGCLNALHQAFAFYDQHQIDTTNMIHHSDRGIQYAGKSYTDLLHGRGWRISMTQTGDPLHNALAERMNNTLKNSWHISSSKQSFDQALLSVDRAVRMYNEARPHQALRAKTPMQVITPESEGHHHHHH | soluble
MSLGGLCPRCRGRGWCGRDRCPFLDALNEVRARLSSRNVDGYTVTAHVSWRGYPRVIAAPGVGEHRTPDEGGVLADLPYEEALKTRALTFRRYRGKRDVRNPPDLSDPEIESSISVRPVESTLQVRRRLSGASRTTPFIGPLVEGELELDGTPKVPRDLERYHEDDVKAEEAVVGLYRRGYDESYIARALSLGLLGRDRRMVPTRWSVAAVDSMVSEHLAREVRDLPVSSEYRVLSGEVFGNEMWVILRPEPLSYELVEAYEPGAPWSDRTRIAVLRDSEVKDCKEPRETGGAYFAARLAALEWCSELGKQHGITVIRIVRKEYSAPLGAWVIREAVRRAEEVFSTDDPREVWEFLREKLDDPVGEAALKVIKRGRQRTLDTFLEGHHHHHH | not soluble
MSLGGTGKVGVILPLLTSPFWQSYNDYVPKMAKSEGVDTLKTVNSNSDPSQQITDINNQLNQGVKGLVVAPLDSAAIEAGLDQADRKGVPVVAVDVAPEKGKVAMVVRADNVAYGEKACQYLGEQVTSGKVVQIMGDLASVNGRDRSEAFRTCVRKNYPKLKVLEIPAKWESDTAASKLDTLLNANPDIKGIYMQAGGVYLAPTLQTLKSKGLLKKTGEKGHITIVSNDGIPQEFDAIRKGQIDATVSQPADAYAKYGMYYIKAAMQGKTFKPGPTDHDSTIVKLPSGILEDQLPAPLVTKDNVDDAKLWGNTEGHHHHHH | soluble
MSLGINRIDHAAVQVGDLGKALAWYEDVLGLTVLSRDDTTVHLACRGEAADITLVKGRQSLENFAFGVDDQEDLDRVESILKQEGVASERLNGDSRPGEGATLKFHLPSGHELRLCTGGAERRAGISDFDARGSHVPCDMDHINLLGAVDPSVMRDFLMMIGFKSSLNISVGGQLAGVWLRGSAYDHDIAYMRAVRPGDRLHHVAFAVEDGNHYFRLSDRLMDTGHRWEFGPGRHNGGLGKSTGFGTNNYAYAFDPFGNRNEFSSGMEQFSDDTPPLDCHIAPEQLTEVMNGWGYEMAETFMTVGSEGHHHHHH | not soluble
MSLGKYFGTDGVRGVANTELTPELAFKLGRIGGYVLTKDKENPKVLIGRDTRISGEMLEGALVAGLLSIGVEVMRLGVISTPGVAFLTKAVSASAGVMISASHNPVADNGIKFFGPDGFKLLDEQEKEIETLLDQEDALPRPTGADLGQANDYFEGAQKYLQFLKQTVDEDFTGIHIALDCANGAASSLAPHLFADLEADISTMGTSPNGKNINDGVGSTHPEALAAFVNAKNADIGLAFDGDADRLIAVDEKGNIVDGDKILYICAKYMKEKGLLKQQTLVTTVMSNLGLYKALEALQIDTKQTAVGDRYVMEEMRKGGYNLGGEQSGHIIFLDHITTGDGMLSALQLVNIMKQTGKKLSELAEEWETFPQTLVNIRVTDKHAVTDNEKVPAVIKEVEQEMNGEGRVLVRPSGTEPLVRIMVEAKTEELCDAFVNKIADVVKAELGQEEGHHHHHH | soluble
MSLGLAIIHSRASIGVQAPPVTVEVHISNGMPGFTLVGLPETTVKESRDRVRSAIINSRFEFPAKRITVNLAPADLPKEGGRFDLPIALGILAASDQIARNKLESYEFIGELALSGEIRGVKGVLPAALAANQVERCLVVPHSNGDQAALVGVERHKSAQSLLEVCADLCGQQTLSLFQSSPSVQQVSQTRDLQDIIGQQQGKRALEIAAAGNHNLLFLGPPGTGKTMLASRLCDLLPEMSDEEAMETASIASLTQQEINQHNWKLRPFRAPHHSSSMAALVGGGTIPRPGEISLAHNGLLFLDEMPEFERKVLDSLREPLESGEIVISRAQGKTRFPARFQLVGALNPSPTGYYEGSQARANPQSILRYLSRLSGPLLDRFDMSIEIPALPKGTLANGGDRGESTAAVRQRVWVARERMLARSGKVNALLQSREIEQYCPLLKADAEFLESALHRLGLSIRAYHRIIKVARTIADLQGEAQIARPHLAEALGYRAMDRLLKQLSAQNEGHHHHHH | soluble
